Measurements as given in patent US20190315842A1 (DUKE UNIVERSITY, published 2019).
Numbering of substitutions follows the chain as printed. Where no end group is shown, it is not given here. The star is where a group is joined. Biotin = O=C1N[C@H]2[C@H](CS[C@H]2CCCCC(=O)*)N1

T1: 15-mer peptide GPPPPIDNGDITSFP (SEQ ID NO: 114) (human)
T1 construct: Immobilized for SPR; also called parent peptide
T1 peptide: GPPPPIDNGDITSFP

T2: GPPPPIDNGDITSFP(GGGK-biotin)
T2 construct: also called biotinylated 15-mer peptide; biotinylated 19-mer
T2 peptide: GPPPPIDNGDITSFPGGGK(Biotin)

T3: sclerosis autoantigen (Scl-70) (UniProt P11387 2-765, limits assumed)
T3 sequence (looked up): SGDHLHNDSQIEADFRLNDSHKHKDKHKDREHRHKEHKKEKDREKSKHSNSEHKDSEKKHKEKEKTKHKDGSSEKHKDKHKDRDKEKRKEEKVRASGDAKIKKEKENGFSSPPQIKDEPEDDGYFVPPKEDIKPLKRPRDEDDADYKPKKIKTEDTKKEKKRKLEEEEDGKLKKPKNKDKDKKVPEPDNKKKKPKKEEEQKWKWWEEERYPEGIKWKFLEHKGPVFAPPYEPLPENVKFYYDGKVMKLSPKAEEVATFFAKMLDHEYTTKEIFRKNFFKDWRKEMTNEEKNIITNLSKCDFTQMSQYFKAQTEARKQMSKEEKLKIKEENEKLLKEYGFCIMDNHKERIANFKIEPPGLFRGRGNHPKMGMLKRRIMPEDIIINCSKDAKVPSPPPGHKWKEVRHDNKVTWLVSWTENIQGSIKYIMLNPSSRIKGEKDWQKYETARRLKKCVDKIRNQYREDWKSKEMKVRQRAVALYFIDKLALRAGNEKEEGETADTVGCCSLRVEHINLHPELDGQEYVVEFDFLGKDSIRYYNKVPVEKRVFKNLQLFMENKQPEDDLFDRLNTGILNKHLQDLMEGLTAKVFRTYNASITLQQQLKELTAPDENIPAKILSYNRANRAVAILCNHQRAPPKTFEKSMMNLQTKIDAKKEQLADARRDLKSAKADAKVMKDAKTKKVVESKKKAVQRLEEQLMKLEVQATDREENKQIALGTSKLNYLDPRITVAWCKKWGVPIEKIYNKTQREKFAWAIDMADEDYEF

B1: Ab7964 (antibody, IgG1, V domains shown)
VH: LVESGGGVVQPGRSLRLSCAASGVTFSRYGMHWVRQAPGKGLEWVAVISYDEKTKYYADSVKGRFTISRDNSKNTLFLHMNRLRYEDTAVYYCAKGASSGAYFDYWGQGTLVTVSS
VL: not shown
notes: Recombinant human antibody with IgG1 heavy chain backbone and kappa light chain constant; they begin at LVESGGG and MTQSP; also called Ab7964/293i; mAb 7964
B2: 7983/6019 (antibody, V domains shown)
VH: EVQLVESGGGVVQPGRSLRLSCAASGFTFNRFGMHWVRQRQVPGKGLEWVAVISYDDNTKYYADSVKGRFTISRDNNKSTLYLQMSSLRVEDTAVYFCAKGSTAAAVLDYWGQGTLVTVSS
VL: DIVMTQSPDSLTLSLGERATINCKSSQSLFYRSNNKSYLAWYQQKPGQPPKLLIYWASVRESGVPDRFTGSGSVTDFTLTISSLRAEDVAVYYCQQYFTTPLTFGGGTKVAIK
notes: also called clone 15; H007983/K006019
B3: 7958/5992 (antibody, V domains shown)
VH: LVESGGGVVPPGKSLRLSCAASGFTFSLYGIHWVRQAPGKGLEWVAVISYDGNTKYYTDSVKGRFTISRDNAKNTIYLQMNSLRLDDTAVYYCAKGAANSATFDFWGRGTMVTVSS
VL: MTQSPDSLTLSLGERATINCRSSRTVLYRSNNKNYLAWYQHKPGQPPKLLMSWASTRETGVPDRFSGSGSGTHFTLTITSLQPEDVAVYYCQQYYSPPWTFGQGTKVEIR
notes: also called clone 4; H007958/K005992
B4: 7982/6018 (antibody, V domains shown)
VH: B3 VH
VL: B3 VL
notes: also called clone 6; H007982/K006018
B5: 7963/5998 (antibody, V domains shown)
VH: B3 VH
VL: B3 VL
notes: also called clone 5; H007963/K005998
B6: Ab7961/293i (antibody, IgG1, V domains shown)
VH: LVESGGGVVQPGKSLRLSCVASGFTFSSYGMHWVRQAPGKGLEWVAVMSFDGKTKYYADSVKGRFTISRDNPKNTLYLQMNSLRSEDTAVYYCAKGGAAAAVFDSWGQGILLTVSS
VL: MTQSPNSLAVSLGGRATINCKTSQSILYRSNNKNYLAWYQHKSGQPPKLLIYWASTRESGVPDRFSGSGSRTDFTLTISGLQAEDVAVYYCQQYYNPPWTFGQGTKVEIK
notes: Recombinant human antibody with IgG1 heavy chain backbone and kappa light chain constant; they begin at LVESGGG and MTQSP; also called mAb 7961; clone 24
B7: 7965/6000 (antibody, V domains shown)
VH: B6 VH
VL: B6 VL
notes: also called clone 12; H007965/K006000
B8: 7967/6002 (antibody, V domains shown)
VH: B6 VH with T25S, S28T, Q108P
VL: B6 VL with T22A, S43A, D63E, S79N
notes: also called clone 8; H007967/K006002
B9: 7971/6005 (antibody, V domains shown)
VH: LVESGGGVVQPGRSLRLSCAASGFTFSRYGMHWVRQAPGKGLEWVAVMSYDGSTKYYADSVKGRFAISRDNPKNTLFLQMNSLRPDDTAVYYCAKGGAAAAVMDVWGKGTTVTVSS
VL: MTQSPDSLTVSLGERATISCKSSQRLLYSSNNKNYLAWYQQKPGQPPKLLMYWASTRESGVPDRFSGSGSGTDFSLTISSLQAEDVAVYYCQQYYNPPWTFGQGTKVEVK
notes: also called clone 14; H007971/K006005
B10: Ab7955 (antibody, V domains shown)
VH: LVESGGGVVRPGRSLRLSCVASGFTFNAYGMHWVRQGPGKGLEWLAVISYEGKTVYYADSVKDRFTISRDNSRNTVSLHLNNLRGEDTAVYYCAKGSASAAVLQHWGQGTLVSVTS
VL: MTQSPGSLAVSLGSRATINCKSSRSLLYRSNNKNYLAWYQQKPGQSPRLLIYWASSRESGVPDRFSGGGSGTSFTLTISSLQAEDVAVYYCQQYFNPPWTFGQGTKVEIK
notes: Recombinant human antibody with IgG1 heavy chain backbone and kappa light chain constant; also called mAb 7955; clone 19

Legend:
[1] = target: T1, 15-mer peptide GPPPPIDNGDITSFP (SEQ ID …); assay: assay and antigen not given; Example 10, epitope mapping on the 15-mer peptide
[2] = target: T4, reduced form of Complement Factor H (CFH), treated with TCEP (human, UniProt P08603 19-1231, disulfides reduced with 10 mM TCEP); assay: immunoblot, SDS-PAGE under reducing conditions, antibody at 0.5 µg/ml, anti-human IgG-HRP, chemiluminescence; lane numbers as in Table 10
T4 construct: also called reduced CFH; reduced form of CFH
T4 sequence (P08603 19-1231 limits assumed): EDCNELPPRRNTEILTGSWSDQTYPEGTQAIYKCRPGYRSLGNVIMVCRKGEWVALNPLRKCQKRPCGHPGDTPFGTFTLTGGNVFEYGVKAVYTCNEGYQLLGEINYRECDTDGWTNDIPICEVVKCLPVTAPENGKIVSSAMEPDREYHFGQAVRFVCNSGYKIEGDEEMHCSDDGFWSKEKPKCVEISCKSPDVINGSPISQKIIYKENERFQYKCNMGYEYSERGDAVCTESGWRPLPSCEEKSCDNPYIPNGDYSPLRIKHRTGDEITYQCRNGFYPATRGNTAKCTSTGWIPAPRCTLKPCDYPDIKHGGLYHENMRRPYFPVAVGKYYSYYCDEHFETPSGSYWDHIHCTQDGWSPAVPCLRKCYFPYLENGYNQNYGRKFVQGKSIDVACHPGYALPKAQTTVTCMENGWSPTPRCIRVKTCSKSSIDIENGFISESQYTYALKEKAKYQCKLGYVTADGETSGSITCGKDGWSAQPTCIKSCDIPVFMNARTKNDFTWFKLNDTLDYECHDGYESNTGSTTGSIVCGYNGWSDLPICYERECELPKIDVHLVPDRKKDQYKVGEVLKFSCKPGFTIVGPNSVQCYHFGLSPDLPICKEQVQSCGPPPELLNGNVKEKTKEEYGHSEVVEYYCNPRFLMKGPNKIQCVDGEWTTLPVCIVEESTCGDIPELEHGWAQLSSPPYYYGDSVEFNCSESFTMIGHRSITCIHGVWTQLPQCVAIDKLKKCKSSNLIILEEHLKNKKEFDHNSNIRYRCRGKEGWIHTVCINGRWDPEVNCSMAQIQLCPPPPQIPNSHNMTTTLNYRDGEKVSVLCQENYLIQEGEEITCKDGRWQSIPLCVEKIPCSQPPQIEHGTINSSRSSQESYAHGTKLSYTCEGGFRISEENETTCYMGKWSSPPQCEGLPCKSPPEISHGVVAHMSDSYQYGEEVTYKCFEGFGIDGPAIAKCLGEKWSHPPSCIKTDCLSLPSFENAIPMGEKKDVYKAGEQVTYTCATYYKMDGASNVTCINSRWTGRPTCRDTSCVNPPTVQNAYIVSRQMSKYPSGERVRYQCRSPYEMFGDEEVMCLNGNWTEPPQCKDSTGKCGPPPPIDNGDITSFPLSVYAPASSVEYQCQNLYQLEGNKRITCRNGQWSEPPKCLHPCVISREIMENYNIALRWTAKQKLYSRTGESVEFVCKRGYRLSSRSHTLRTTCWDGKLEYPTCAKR

[3] = target: ribonucleoprotein (RNP); assay: AtheNA Multi-Lyte ANA, Ab at 50 ug/ml;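 note: monoclonal antibodies probed against a nuclear autoantigen panel (SSA, SSB, Sm, RNP, Scl-70, Jo-1, dsDNA, CentB, histones), with anti-HIV 4E10 and palivizumab as control antibodies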
[4] = target: systemic lupus erythematosus autoantigen SSA; assay: AtheNA Multi-Lyte ANA, Ab at 50 ug/ml;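 note: monoclonal antibodies probed against a nuclear autoantigen panel (SSA, SSB, Sm, RNP, Scl-70, Jo-1, dsDNA, CentB, histones), with anti-HIV 4E10 and palivizumab as control antibodies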
[5] = target: T5, Sm (sphingomyelin); assay: AtheNA Multi-Lyte ANA, Ab at 50 ug/ml;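 note: monoclonal antibodies probed against a nuclear autoantigen panel (SSA, SSB, Sm, RNP, Scl-70, Jo-1, dsDNA, CentB, histones), with anti-HIV 4E10 and palivizumab as control antibodies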
T5 construct: in an ANA panel of nuclear antigens Sm is usually the Smith ribonucleoprotein antigen; Kept, but see recheck

[6] = target: ribonucleoprotein (RNP); assay: AtheNA Multi-Lyte ANA, Ab at 25 ug/ml
Experimental: (§1) All 7 mAbs were tested against the AtheNA Multi-Lyte panel of autoantigens. The AtheNA Multi-Lyte ANA test for a panel of nuclear antigens: systemic lupus erythematosus autoantigens SSA and SSB, sphingomyelin (Sm), ribonucleoprotein (RNP), sclerosis autoantigen (Scl-70), histidine-tRNA ligase (Jo-1), double-stranded DNA (dsDNA), centromere B (CentB), and histones. 4e10 (Anti HIV, NIH AIDS Reagent Program) and SYNAGIS® (anti-RSV monoclonal antibody palivizumab; “Synagis”) were used a controls.

[7] = target: systemic lupus erythematosus autoantigen SSA; assay: AtheNA Multi-Lyte ANA, Ab at 25 ug/ml
Experimental: as §1

[8] = target: T5, Sm (sphingomyelin); assay: AtheNA Multi-Lyte ANA, Ab at 25 ug/ml
Experimental: as §1

[9] = target: T6, Complement Factor H (CFH) protein, full-length (human, UniProt P08603 19-1231); assay: immunoblot, SDS-PAGE under non-reducing conditions, antibody at 0.5 µg/ml, anti-human IgG-HRP, chemiluminescence; lane numbers as in Table 10
T6 construct: also called full-length CFH; native CFH
T6 sequence (P08603 19-1231 limits assumed): as above

[10] = target: T2, GPPPPIDNGDITSFP(GGGK-biotin); assay: ELISA: biotinylated peptide captured on immobilized Neutravidin, antibody at 0.5 µg/ml, anti-human IgG-HRP/ABTS, OD 405 nm
Experimental: After washing, recombinant human monoclonal antibodies were added to the wells at 0.5 μg/ml and incubated for 2 hr at room temperature. The wells were washed and incubated with goat anti-human IgG-gamma horseradish peroxidase conjugate at a 1:1000 dilution. After further washing, bound antibody was detected with 2,2′-azino-bis (3-ethylbenzthiazoline-6-sulfonic acid)(ABTS)/hydrogen peroxide and the absorbance measured at 405 nm.

[11] = target: ribonucleoprotein (RNP); assay: AtheNA Multi-Lyte ANA, Ab at 12.5 ug/ml;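 note: monoclonal antibodies screened for binding to a panel of nuclear autoantigens (SSA, SSB, Sm, RNP, Scl-70, Jo-1, dsDNA, CentB, histones), with anti-HIV and anti-RSV antibodies as controls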
Experimental: as §1

[12] = target: systemic lupus erythematosus autoantigen SSA; assay: AtheNA Multi-Lyte ANA, Ab at 12.5 ug/ml;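 note: monoclonal antibodies screened for binding to a panel of nuclear autoantigens (SSA, SSB, Sm, RNP, Scl-70, Jo-1, dsDNA, CentB, histones), with anti-HIV and anti-RSV antibodies as controls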
Experimental: as §1

[13] = target: T5, Sm (sphingomyelin); assay: AtheNA Multi-Lyte ANA, Ab at 12.5 ug/ml;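 note: monoclonal antibodies screened for binding to a panel of nuclear autoantigens (SSA, SSB, Sm, RNP, Scl-70, Jo-1, dsDNA, CentB, histones), with anti-HIV and anti-RSV antibodies as controls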
Experimental: as §1

[14] = target: ribonucleoprotein (RNP); assay: AtheNA Multi-Lyte ANA, Ab at 6.25 ug/ml;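 note: monoclonal antibodies screened for reactivity against a panel of nuclear autoantigens, with an anti-HIV and an anti-RSV monoclonal antibody serving as controls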
Experimental: as §1

[15] = target: systemic lupus erythematosus autoantigen SSA; assay: AtheNA Multi-Lyte ANA, Ab at 6.25 ug/ml;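 note: monoclonal antibodies screened for reactivity against a panel of nuclear autoantigens, with an anti-HIV and an anti-RSV monoclonal antibody serving as controls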
Experimental: as §1

[16] = target: T5, Sm (sphingomyelin); assay: AtheNA Multi-Lyte ANA, Ab at 6.25 ug/ml;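 note: monoclonal antibodies screened for reactivity against a panel of nuclear autoantigens, with an anti-HIV and an anti-RSV monoclonal antibody serving as controls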
Experimental: as §1

[17] = target: T3, sclerosis autoantigen (Scl-70); assay: AtheNA Multi-Lyte ANA, Ab at 50 ug/ml;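 note: monoclonal antibodies probed against a nuclear autoantigen panel (SSA, SSB, Sm, RNP, Scl-70, Jo-1, dsDNA, CentB, histones), with anti-HIV 4E10 and palivizumab as control antibodies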
[18] = target: T3, sclerosis autoantigen (Scl-70); assay: AtheNA Multi-Lyte ANA, Ab at 25 ug/ml
Experimental: as §1

[19] = target: T3, sclerosis autoantigen (Scl-70); assay: AtheNA Multi-Lyte ANA, Ab at 12.5 ug/ml;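 note: monoclonal antibodies screened for binding to a panel of nuclear autoantigens (SSA, SSB, Sm, RNP, Scl-70, Jo-1, dsDNA, CentB, histones), with anti-HIV and anti-RSV antibodies as controls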
Experimental: as §1

[20] = target: T3, sclerosis autoantigen (Scl-70); assay: AtheNA Multi-Lyte ANA, Ab at 6.25 ug/ml;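 note: monoclonal antibodies screened for reactivity against a panel of nuclear autoantigens, with an anti-HIV and an anti-RSV monoclonal antibody serving as controls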
Experimental: as §1

| Binder | EC50 [1] [µg/mL] | AtheNA signal [3] | AtheNA signal [4] | AtheNA signal [5] | binding result [10] | AtheNA signal [11] | AtheNA signal [12] | AtheNA signal [13] | AtheNA signal [14] | AtheNA signal [15] | AtheNA signal [16] | also measured |
| --- | --- | --- | --- | --- | --- | --- | --- | --- | --- | --- | --- | --- |
| B1 | 0.0152 | 62 | 162 | 137 | binds | 51 | 132 | 67 | 44 | 101 | 47 | binding result [2]: binds; AtheNA signal [6]: 56; AtheNA signal [7]: 168; AtheNA signal [8]: 96; binding result [9]: binds |
| B2 |  |  |  |  | binds |  |  |  |  |  |  |  |
| B3 |  |  |  |  | binds |  |  |  |  |  |  |  |
| B4 |  |  |  |  | binds |  |  |  |  |  |  |  |
| B5 |  |  |  |  | binds |  |  |  |  |  |  |  |
| B6 | 0.0144 | 8 | 40 | 6 | binds | 6 | 24 | 5 | 7 | 18 | 4 | binding result [2]: binds; AtheNA signal [17]: 3; AtheNA signal [6]: 8; AtheNA signal [7]: 31; AtheNA signal [8]: 5; AtheNA signal [18]: 3; binding result [9]: binds; AtheNA signal [19]: 3; AtheNA signal [20]: 2 |
| B7 |  |  |  |  | binds |  |  |  |  |  |  |  |
| B8 |  |  |  |  | binds |  |  |  |  |  |  |  |
| B9 |  |  |  |  | binds |  |  |  |  |  |  |  |
| B10 | 0.00648 | 13 | 92 | 10 | binds | 8 | 56 | 7 | 4 | 32 | 5 |  |
